# US20220010020A1 (Five Prime, published 2022)
# T1: FGFR2-IIIb (fibroblast growth factor receptor 2 IIIb splice form) (human, UniProt P21802 22-377)
# T1 construct: also called FGFR2b; KGFR
# T1 chain: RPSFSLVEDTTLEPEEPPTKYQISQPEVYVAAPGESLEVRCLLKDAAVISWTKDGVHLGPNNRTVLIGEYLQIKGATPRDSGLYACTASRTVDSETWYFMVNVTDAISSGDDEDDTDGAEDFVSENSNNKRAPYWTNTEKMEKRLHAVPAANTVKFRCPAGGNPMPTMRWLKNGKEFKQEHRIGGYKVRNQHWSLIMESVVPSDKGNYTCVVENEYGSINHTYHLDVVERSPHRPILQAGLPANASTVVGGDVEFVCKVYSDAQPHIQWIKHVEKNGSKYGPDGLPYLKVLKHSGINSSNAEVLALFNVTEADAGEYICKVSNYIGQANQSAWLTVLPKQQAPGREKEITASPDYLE
# Experiments:
# [1] = biological target: T1, FGFR2-IIIb (fibroblast growth factor …); assay: ELISA potency of forced oxidation samples
# [2] = biological target: T1, FGFR2-IIIb (fibroblast growth factor …); assay: blocking ELISA (potency), forced oxidation study
# [3] = biological target: T1, FGFR2-IIIb (fibroblast growth factor …); assay: blocking ELISA (potency), forced oxidation study; blocked ligand not named
Binder,Potency By ELISA [1],"% Potency (Assay 1), against Reference [2] [%]","% Potency (Assay 2), against Reference [2] [%]",IC50 [3] [µg/mL]
"anti-FGFR2-IIIb antibody (afucosylated, humanized IgG1 monoclonal antibody), control sample incubated without hydrogen peroxide (antibody, V domains shown, also called αFGFR2b; Sample 1) VH: QVQLVQSGAEVKKPGSSVKVSCKASGYIFTTYNVHWVRQAPGQGLEWIGSIYPDNGDTSYNQNFKGRATITADKSTSTAYMELSSLRSEDTAVYYCARGDFAYWGQGTLVTVSS VL: DIQMTQSPSSLSASVGDRVTITCKASQGVSNDVAWYQQKPGKAPKLLIYSASYRYTGVPSRFSGSGSGTDFTFTISSLQPEDIATYYCQQHSTTPYTFGQGTKLEIKR",84,79,89,0.0272
"anti-FGFR2-IIIb antibody incubated with 1.0% hydrogen peroxide overnight at room temperature (force oxidized) (antibody, human IgG1, kappa, V domains shown, Same antibody as m1 after peroxide treatment; also called +1.0% H2O2; 1.0% H2O2) VH: QVQLVQSGAEVKKPGSSVKVSCKASGYIFTTYNVHWVRQAPGQGLEWIGSIYPDNGDTSYNQNFKGRATITADKSTSTAYMELSSLRSEDTAVYYCARGDFAYWGQGTLVTVSS VL: DIQMTQSPSSLSASVGDRVTITCKASQGVSNDVAWYQQKPGKAPKLLIYSASYRYTGVPSRFSGSGSGTDFTFTISSLQPEDIATYYCQQHSTTPYTFGQGTKLEIKR",83,73,93,0.0257
"anti-FGFR2-IIIb antibody incubated with 0.01% hydrogen peroxide overnight at room temperature (force oxidized) (antibody, human IgG1, kappa, V domains shown, Same antibody as m1 after peroxide treatment; also called +0.01% H2O2; 0.01% H2O2) VH: QVQLVQSGAEVKKPGSSVKVSCKASGYIFTTYNVHWVRQAPGQGLEWIGSIYPDNGDTSYNQNFKGRATITADKSTSTAYMELSSLRSEDTAVYYCARGDFAYWGQGTLVTVSS VL: DIQMTQSPSSLSASVGDRVTITCKASQGVSNDVAWYQQKPGKAPKLLIYSASYRYTGVPSRFSGSGSGTDFTFTISSLQPEDIATYYCQQHSTTPYTFGQGTKLEIKR",102,98,106,0.0208
"anti-FGFR2-IIIb antibody incubated with 0.1% hydrogen peroxide overnight at room temperature (force oxidized) (antibody, human IgG1, kappa, V domains shown, Same antibody as m1 after peroxide treatment; also called +0.1% H2O2; 0.1% H2O2) VH: QVQLVQSGAEVKKPGSSVKVSCKASGYIFTTYNVHWVRQAPGQGLEWIGSIYPDNGDTSYNQNFKGRATITADKSTSTAYMELSSLRSEDTAVYYCARGDFAYWGQGTLVTVSS VL: DIQMTQSPSSLSASVGDRVTITCKASQGVSNDVAWYQQKPGKAPKLLIYSASYRYTGVPSRFSGSGSGTDFTFTISSLQPEDIATYYCQQHSTTPYTFGQGTKLEIKR",89,78,100,0.0259
